Data on two molecules can be found in patent US20230250135A1 (Janssen / Centocor, published 2023).

Bounds are passed on as bounds.

For assay [1], the target named is UFV161721 (influenza A virus A/Hong Kong/1/68 …). Description: Binding-AlphaLISA, Expi293F supernatant, normalized to UFV161333.
The target of assay [2] is UFV161715 (influenza A virus A/Hong Kong/1/68 …). Described as above.
The target in assay [3] is UFV161333 (influenza A virus A/Hong Kong/1/68 …).
The target of assay [4] is UFV171004 (influenza A virus A/Hong Kong/1/68 …). Description: ELISA on purified polypeptide. (In general: ELISA stands for enzyme-linked immunosorbent assay.)
Assay [5] deals with UFV170051 (influenza A virus A/Hong Kong/1/68 …). Description: Binding-AlphaLISA, Expi293F supernatant, reference UFV170051. A general note: Bead proximity is the source of the signal in Alpha formats.

B1: SD15013 (VHH)
VHH: EVQLVESGGGLVQAGDSLRISCAASGRTLSIYSMGWFRQAPGKEREFVATIGWNSGRTFYPDSLKGRFTISRDNARNTLYLQMNNLRPEDTAVYYCAAAKGPLRLSSQADYWGQGTQVTVSS
With B1, the “binding relative to reference UFV161333” value in assay [1] and in assay [2] was ~60% in each case. Further, in assay [3], the “fold increase in binding relative to reference UFV161686” value was 10 fold.

B2: CT149 (antibody, V domains shown)
VH: QVQLVQSGAEVKKPGASVKVSCKTSGYSFSTYGVSWVRQAPGQGPEWVGWISAYTGITDYAQKFQGRVTLTTDATTATAFLDLRSLRPDDTATYFCARDKVQGRVEVGSGGRHDYWGQGTLVIVSS
VL: EVVLTQSPGTLALPPGERATLSCRASHRVGSTYIAWYQQKSGQAPRRLIYGASNRATDIPDRFSGSGSGTDFTLTIRRLEPEDSAVYYCQQFSVSPWTFGQGTRVEIK
With B2, in assay [2], the “binding relative to reference UFV161333” value is ~90%. Further, the EC50 (as a rule, the concentration that produces a half-maximal response) in assay [4] is < 0.01 nM. The binding result in assay [5] is listed as “binds”.
